Source: patent US8686110B2, “Therapeutic pro-apoptotic BH3-like molecules and methods for generating and/or selecting the same” (The Walter and Eliza Hall Institute of Medical Research, priority 2005, dated 2014)

Target: T1, Mcl-1 (Mus musculus, UniProt P97287)
T1 construct: GST (cleaved yes); made in house; host or cells: E. coli
Test: Phage ELISA (titration and competition) of phage-displayed BH3 domains
Type: binding
Conditions: Bak BH3 mutants; from Table 4e
Excerpt: In order to create a FLAG-tagged form of the sequence, an oligonucleotide encoding the FLAG epitope was employed to loop-in the required sequence at the N-terminus of the peptide sequences, already fused to gene 3 as described above, using the Kunkel mutagenesis method (Kunkel et al. Methods Enzymol 204:125-139, 1991). For the alanine scanning constructs and other point mutations of the BimBH3 or other BH3 sequence, oligonucleotides with the desired codon mismatch were employed in Kunkel mutagenesis reactions on the FLAG-BimBH3 or FLAG-BadBH3 template. […]
All ELISA's were performed as described previously (Fairlie et al. J Biol Chem 279:2125-2134, 2004). […] Following washing with PBS/Tween, bound phage were detected using a horseradish peroxidase-conjugated anti-M13 antibody. […]
In an initial assay, the BimBH3 and other BH3 phage were tested for their ability to bind directly to immobilised Bcl-xL and Mcl-1. […] The specificity of the interactions were further assessed using a competition assay in which phage binding to the immobilised protein was competed with the corresponding recombinant protein in solution. The IC50 values obtained are as presented in Table 3 and were very similar to those determined with BimBH3 and BadBH3 synthetic peptides as measured by surface plasmon resonance on a BIAcore instrument (Chen et al. 2005 supra) and using isothermal calorimetry (unpublished data). […]

T1 sequence (P97287 152-308 limits assumed): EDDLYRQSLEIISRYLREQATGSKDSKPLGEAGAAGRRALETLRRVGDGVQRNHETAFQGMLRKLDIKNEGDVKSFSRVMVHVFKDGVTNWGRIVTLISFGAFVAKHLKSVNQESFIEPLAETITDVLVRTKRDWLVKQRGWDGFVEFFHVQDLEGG

Substance	selectivity among pro-survival proteins, in words
I19A (PSSTMGQVGRQLAIIGDDANRRYDSE) [Bim I19A]	selective for Mcl-1
V8A (PSSTMGQAGRQLAIIGDDINRRYDSE) [Bim V8A]	selective for Mcl-1
